Data: patent US20140322130A1 (published 2014)
Where no end group is shown, it is not given here.

Molecular target: T1, 15N-labelled recombinant EGFR287-302 peptide with methionine mutated to leucine (human, also: 15N-labelled, oxidized)
T1 construct: cleaved from an SH2 fusion with CNBr; also called 15N-labelled peptide
T1 peptide: CGADSYELEEDGVRKC
Assay: NMR, 15N HSQC

B1: Fab fragment of mAb806 (Fab, V domains shown)
VH: DVQLQESGPSLVKPSQSLSLTCTVTGYSITSDFAWNWIRQFPGNKLEWMGYISYSGNTRYNPSLKSRISITRDTSKNQFFLQLNSVTIEDTATYYCVTAGRGFPYWGQGTLVTVSA
VL: DILMTQSPSSMSVSLGDTVSITCHSSQDINSNIGWLQQRPGKSFKGLIYHGTNLDDEVPSRFSGSGSGADYSLTISSLESEDFADYYCVQYAQFPWTFGGGTKLEIKR
notes: papain Fab of the intact mAb; also called Fab806
B1: binds.
